The target of test [1] is T1, human EphA8 extracellular region-SEAP-His protein (human, UniProt P29322 28-542).
T1 construct: extracellular domain; also called hEphA8-SEAP-His
T1 sequence (looked up): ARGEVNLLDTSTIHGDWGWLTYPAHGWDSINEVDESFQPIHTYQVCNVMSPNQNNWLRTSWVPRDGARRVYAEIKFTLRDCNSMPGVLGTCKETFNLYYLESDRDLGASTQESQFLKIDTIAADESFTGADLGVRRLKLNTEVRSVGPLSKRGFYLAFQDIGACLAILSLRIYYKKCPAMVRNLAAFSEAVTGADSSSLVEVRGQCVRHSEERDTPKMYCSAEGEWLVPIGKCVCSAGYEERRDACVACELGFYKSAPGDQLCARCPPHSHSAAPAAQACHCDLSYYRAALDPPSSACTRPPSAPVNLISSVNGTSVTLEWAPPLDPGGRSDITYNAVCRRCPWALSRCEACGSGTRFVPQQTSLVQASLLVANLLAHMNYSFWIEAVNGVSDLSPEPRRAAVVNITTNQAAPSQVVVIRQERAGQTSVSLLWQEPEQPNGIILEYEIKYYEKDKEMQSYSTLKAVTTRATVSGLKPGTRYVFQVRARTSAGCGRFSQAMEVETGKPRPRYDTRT
In words: ELISA. The method, then:
(§1) Each well of a 96-well plate (Nunc) was coated with a rabbit anti-6-His antibody (Bethyl Laboratories). Each well was […] After washing with 0.05% Tween 20/PBS (Nacalai Tesque) three times, the SEAP-His protein of human EphA1, EphA2, EphA3, EphA4, EphA5, EphA6, EphA7, EphA8, EphA10, EphB1, EphB2, EphB3, EphB4, or EphB6 was added (final concentration: 1 nM) to each well and incubated at room temperature for 1 hour. After washing three times, the humanized antibody was added to each well and incubated at room temperature for 1 hour. After washing three times, a horseradish peroxidase-labeled donkey […] antibody (Jackson ImmunoResearch Laboratories) was added thereto and incubated at room temperature for 1 hour. After washing three times, TMB Microwell Peroxidase Substrate System (Kirkegaard & Perry Laboratories (KPL)) was added to each well. After confirmation of moderate color development, an equal amount of a reaction stopping solution (1N H₂SO₄, Wako Pure Chemical Industries) was added to each well. The absorbance at 450 nm was read using a microplate reader (Thermo Fisher Scientific).

Test [2] deals with T2, human EphA4 extracellular region-SEAP-His protein (human, UniProt P54764 20-547).
T2 construct: also called hEphA4-SEAP-His
In words: ELISA. As for the experimental part: as §1

Test [3] concerns the target T2, human EphA4 extracellular …. The test can be described thus: SPR, Ab captured. The method, then: The binding affinity of each anti-EphA4 monoclonal humanized antibody obtained in Example 16 for human EphA4 was determined by surface plasmon resonance (SPR) using Biacore T200 (GE Healthcare). First, for the assay of antibody A, a rat anti-mouse IgG₁ antibody produced with a conventional method by immunizing rat with mouse IgG₁ antibody was immobilized on sensor chip CM5. The immobilization of the rat anti-mouse IgG1 antibody on sensor chip CM5 was performed by the amine coupling method using N-hydroxysuccinimide (NHS) and N-ethyl-N′-(3-dimethylaminopropyl)carbodiimide hydrochloride (EDC). Ethanolamine was used in blocking (the sensor chip and the reagents for immobilization were all manufactured by GE Healthcare). The antibody was diluted with a buffer solution for immobilization (10 mM sodium acetate, pH 4.5) and immobilized on the sensor chip according to the protocol attached to Biacore T200. For the assay of each humanized monoclonal antibody, a protein A chip (GE Healthcare, 29-1383-03) was used. Antibody A or the humanized monoclonal antibody was diluted with a running buffer solution HBS-EP (GE Healthcare), injected onto only flow cell 2 for 120 seconds, and captured (captured amount: approximately 30 to 60 RU). Subsequently, human EphA4 extracellular region-SEAP-His protein serially diluted in the range of 50, 16.7, 5.6, 1.9, and 0.6 nM using HBS-EP was sequentially added from the lower toward higher concentration sides without regeneration operation. Binding reaction curves were sequentially observed at the time of the addition (association phase, for 120 sec) and after the completion of the addition (dissociation phase, for 900 sec). After the completion of each observation, the sensor chip was regenerated by the addition of 3 M MgCl₂ (for 60 sec) or 10 mM Glycine-HCl pH 1.5 (for 30 sec). The obtained binding reaction curves were subjected to fitting analysis with 1:1 binding models using software BIA evaluation attached to the system to calculate the affinity (KD=kd/ka) for human EphA4 (Table 6).

Test [4] has the same target. The test can be described thus: competition ELISA, competitor human Ephrin A5-Fc. As for the experimental part:
Each anti-EphA4 monoclonal humanized antibody obtained in Example 16 was evaluated for its inhibitory activity against the binding between human EphA4 and its human ligand according to the following steps. Each well of a 96-well plate (Nunc) was coated with an anti-alkaline phosphatase antibody (Thermo Fisher Scientific). After incubation overnight at 4° C., each well was blocked with 1% BlockAce (DS Pharma Biomedical) at room temperature for 1 hour. After washing with 0.05% Tween 20/PBS (Thermo Fisher Scientific) three times, the human EphA4 extracellular region-SEAP-His protein obtained by the method of Example 2 was added (final concentration: 10 nM) to each well and incubated at room temperature for 1 hour. After washing three times, a ligand and each serially diluted humanized antibody of antibody A (0, 0.003, 0.01, 0.03, 0.1, 0.3, 1, 3, 10, 30, 100, 300, 1000, and 3000 nM) were added to each well. The ligand used was biotinylated human Ephrin A5-Fc chimera (R&D Systems, final concentration: 0.7 nM). After incubation at room temperature for 1 hour and subsequent washing three times, horseradish peroxidase-labeled streptavidin (GE Healthcare) was added thereto and incubated at room temperature for 1 hour. After washing three times, a TMBZ (3,3′,5,5′-tetramethylbenzidine, Sigma-Aldrich) solution was added to each well and incubated at room temperature for 2 minutes. An equal amount of a reaction stopping solution (1N H₂SO₄, Wako Pure Chemical Industries) was added to each well. The absorbance at 450 nm was read using a microplate reader (PerkinElmer).

T2 sequence (P54764 20-547): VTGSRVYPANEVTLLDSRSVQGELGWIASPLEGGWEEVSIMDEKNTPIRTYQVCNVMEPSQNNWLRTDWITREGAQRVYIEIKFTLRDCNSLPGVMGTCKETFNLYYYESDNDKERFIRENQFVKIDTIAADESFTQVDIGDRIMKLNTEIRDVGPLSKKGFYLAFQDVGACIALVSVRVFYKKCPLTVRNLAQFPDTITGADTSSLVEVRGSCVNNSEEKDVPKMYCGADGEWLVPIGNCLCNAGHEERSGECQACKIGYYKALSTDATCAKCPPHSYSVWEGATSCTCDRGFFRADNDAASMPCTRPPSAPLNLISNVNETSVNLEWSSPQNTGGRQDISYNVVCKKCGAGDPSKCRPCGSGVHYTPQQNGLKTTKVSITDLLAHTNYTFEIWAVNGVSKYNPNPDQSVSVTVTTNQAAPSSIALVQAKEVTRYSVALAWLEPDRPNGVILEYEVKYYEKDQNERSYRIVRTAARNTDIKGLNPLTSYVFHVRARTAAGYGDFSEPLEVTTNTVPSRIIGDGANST

B1: humanized antibody No. 139 (antibody, human IgG2)
heavy: QVQLVQSGSELKKPGASVKVSCKASGYTFTDYSMHWVRQAPGQGLEWMGWINTETGEPTYAQGFTGRFVFSLDTSVSTAYLQISSLKAEDTAVYYCARIPLYYYGSRYWYFDVWGQGTTVTVSSASTKGPSVFPLAPSSRSTSESTAALGCLVKDYFPEPVTVSWNSGALTSGVHTFPAVLQSSGLYSLSSVVTVPSSNFGTQTYTCNVDHKPSNTKVDKTVERKSCVECPPCPAPPAAAPSVFLFPPKPKDTLMISRTPEVTCVVVDVSHEDPEVQFNWYVDGVEVHNAKTKPREEQFNSTFRVVSVLTVVHQDWLNGKEYKCKVSNKGLPAPIEKTISKTKGQPREPQVYTLPPSREEMTKNQVSLTCLVKGFYPSDIAVEWESNGQPENNYKTTPPMLDSDGSFFLYSKLTVDKSRWQQGNVFSCSVMHEALHNHYTQKSLSLSPG
light: DIQMTQSPSSLSASVGDRVTITCRASENIYRNLAWYQQKPGKAPKLLVYAATNLADGVPSRFSGSGSGTDYTLTISSLQPEDFATYYCQHFWGTPWTFGQGTKVEIKRTVAAPSVFIFPPSDEQLKSGTASVVCLLNNFYPREAKVQWKVDNALQSGNSQESVTEQDSKDSTYSLSSTLTLSKADYEKHKVYACEVTHQGLSSPVTKSFNRGEC
notes: human Ig kappa; also called L1-4/HA1
On to B1, for which, in test [1], the “A450 as % of hEphA4-SEAP-His” value came out at 6%. Besides, the “A450 as % of hEphA4-SEAP-His” value in test [2] was 100%. In addition, in test [3], the Kd was determined as 1.4 nM, the koff came to 0.00053 s⁻¹ and the on-rate (kon) was 370000 M⁻¹ s⁻¹. In addition, in test [4], the IC50 came to 3.3 nM.

B2: humanized antibody No. 142 (antibody, human IgG2)
heavy: QVQLVQSGSELKKPGASVKVSCKASGYTFTDYSMHWVRQAPGQGLKWMGWINTETGEPTYADDFKGRFVFSLDTSVSTAYLQISSLKAEDTAVYYCARIPLYYYGSRYWYFDVWGQGTTVTVSSASTKGPSVFPLAPSSRSTSESTAALGCLVKDYFPEPVTVSWNSGALTSGVHTFPAVLQSSGLYSLSSVVTVPSSNFGTQTYTCNVDHKPSNTKVDKTVERKSCVECPPCPAPPAAAPSVFLFPPKPKDTLMISRTPEVTCVVVDVSHEDPEVQFNWYVDGVEVHNAKTKPREEQFNSTFRVVSVLTVVHQDWLNGKEYKCKVSNKGLPAPIEKTISKTKGQPREPQVYTLPPSREEMTKNQVSLTCLVKGFYPSDIAVEWESNGQPENNYKTTPPMLDSDGSFFLYSKLTVDKSRWQQGNVFSCSVMHEALHNHYTQKSLSLSPG
light: DIQMTQSPSSLSASVGDRVTITCRASENIYRNLAWYQQKPGKAPKLLVYAATNLADGVPSRFSGSGSGTDYTLTISSLQPEDFATYYCQHFWGTPWTFGQGTKVEIKRTVAAPSVFIFPPSDEQLKSGTASVVCLLNNFYPREAKVQWKVDNALQSGNSQESVTEQDSKDSTYSLSSTLTLSKADYEKHKVYACEVTHQGLSSPVTKSFNRGEC
notes: human Ig kappa; also called L1-4/HK2
Consider B2, for which, in test [1], the “A450 as % of hEphA4-SEAP-His” value is 5.7%. Further, the “A450 as % of hEphA4-SEAP-His” value in test [2] came out at 100%. In addition, in test [3], the Kd worked out at 1.5 nM, the off-rate constant (koff) was 0.0005 s⁻¹ and the kon was 340000 M⁻¹ s⁻¹. The IC50 in test [4] worked out at 3.7 nM.

B3: humanized antibody No. 141 (antibody, human IgG2)
heavy: QVQLVQSGSELKKPGASVKVSCKASGYTFTDYSMHWVRQAPGQGLEWMGWINTETGEPTYADDFKGRFVFSLDTSVSTAYLQISSLKAEDTAVYYCARIPLYYYGSRYWYFDVWGQGTTVTVSSASTKGPSVFPLAPSSRSTSESTAALGCLVKDYFPEPVTVSWNSGALTSGVHTFPAVLQSSGLYSLSSVVTVPSSNFGTQTYTCNVDHKPSNTKVDKTVERKSCVECPPCPAPPAAAPSVFLFPPKPKDTLMISRTPEVTCVVVDVSHEDPEVQFNWYVDGVEVHNAKTKPREEQFNSTFRVVSVLTVVHQDWLNGKEYKCKVSNKGLPAPIEKTISKTKGQPREPQVYTLPPSREEMTKNQVSLTCLVKGFYPSDIAVEWESNGQPENNYKTTPPMLDSDGSFFLYSKLTVDKSRWQQGNVFSCSVMHEALHNHYTQKSLSLSPG
light: DIQMTQSPSSLSASVGDRVTITCRASENIYRNLAWYQQKPGKAPKLLVYAATNLADGVPSRFSGSGSGTDYTLTISSLQPEDFATYYCQHFWGTPWTFGQGTKVEIKRTVAAPSVFIFPPSDEQLKSGTASVVCLLNNFYPREAKVQWKVDNALQSGNSQESVTEQDSKDSTYSLSSTLTLSKADYEKHKVYACEVTHQGLSSPVTKSFNRGEC
notes: human Ig kappa; also called L1-4/HK1
In the case of B3, the “A450 as % of hEphA4-SEAP-His” value in test [1] stood at 5.5%. Moreover, the “A450 as % of hEphA4-SEAP-His” value in test [2] came out at 100%. For the same molecule, in test [3], the Kd was found to be 1.6 nM, the off-rate constant (koff) came out at 0.00062 s⁻¹ and the kon worked out at 390000 M⁻¹ s⁻¹. This molecule also registered a concentration for half-maximal inhibition (IC50) in test [4] of 3 nM.

For the origin of these results see patent US20190077860A1 (EISAI R AND D MANAGEMENT, published 2019).
